This data set has as its target T1, simplified alpha-carboxysome shell of CsoS1A and CsoS4A-SII.
T1 chain 1: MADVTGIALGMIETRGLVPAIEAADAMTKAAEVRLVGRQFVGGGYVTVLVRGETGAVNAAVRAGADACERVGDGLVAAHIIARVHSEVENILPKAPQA
T1 chain 2: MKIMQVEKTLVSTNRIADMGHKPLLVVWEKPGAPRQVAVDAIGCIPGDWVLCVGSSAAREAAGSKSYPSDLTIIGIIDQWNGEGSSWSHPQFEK

B1: His6-APEX2-S2CP(30) (protein)
chain: HHHHHHMGSSHHHHHHSSGMGKSYPTVSADYQDAVEKAKKKLRGFIAEKRCAPLMLRLAFHSAGTFDKGTKTGGPFGTIKHPAELAHSANNGLDIAVRLLEPLKAEFPILSYADFYQLAGVVAVEVTGGPKVPFHPGREDKPEPPPEGRLPDPTKGSDHLRDVFGKAMGLTDQDIVALSGGHTIGAAHKERSGFEGPWTSNPLIFDNSYFTELLSGEKEGLLQLPSDKALLSDPVFRPLVDKYAADEDAFFADYAEAHQKLSELGFADAGSSKPEKPGSKITGSSGNDTQGSLITYSGGARG
B1 came in with an Average enzyme copy number per shell (T = 3) (copies per shell) of 11 and an Average enzyme copy number per shell (T = 4) (copies per shell) of 14.6.

These data come from patent US20230302124.
